Broadly, the Kd is the equilibrium constant for the complex coming apart. The low end stands for tighter binding, the high end for weaker binding. A word on the koff: it is the rate constant with which the complex falls apart. Higher therefore signals fast dissociation. Usually kon stands for a measure of how fast the partners come together. Higher therefore signals fast association.

From paper PMC6789926 come the findings set out here.

First the molecules themselves.
B1: human ephrin-A5 (soluble, Fc-conjugated) (Fc fusion)
chain: QDPGSKAVADRYAVYWNSSNPRFQRGDYHIDVCINDYLDVFCPHYEDSVPEDKTERYVLYMVNFDGYSACDHTSKGFKRWECNRPHSPNGPLKFSEKFQLFTPFSLGFEFRPGREYFYISSAIPDNGRRSCLKLKVFVRPTNSCMKTIGVHDRVFDVNDKVENSLEPADDTVHESAEPSRGEN
B2: mouse ephrin-A2 (soluble, Fc-conjugated) (Fc fusion)
chain: RNEDPARANADRYAVYWNRSNPRFQVSAVGDGGGYTVEVSINDYLDIYCPHYGAPLPPAERMERYILYMVNGEGHASCDHRQRGFKRWECNRPAAPGGPLKFSEKFQLFTPFSLGFEFRPGHEYYYISATPPNLVDRPCLRLKVYVRPTNETLYEAPEPIFTSN
B3: mouse ephrin-A1 (soluble, Fc-conjugated) (Fc fusion)
chain: ADRHIVFWNSSNPKFREEDYTVHVQLNDYLDIICPHYEDDSVADAAMERYTLYMVEHQEYVACQPQSKDQVRWNCNRPSAKHGPEKLSEKFQRFTPFILGKEFKEGHSYYYISKPIYHQESQCLKLKVTVNGKITHNPQAHVNPQEKRLQADDPEVQVLHSIGYS

This assay concerns the target tetrameric soluble CedV G (sG) (Cedar virus). Description: SPR.
For human ephrin-A1 Fc (Fc fusion), the Kd turned out to be 4210 nM and the off-rate (koff) came out at 0.00981 s⁻¹.
Molecule “mouse ephrin-B1 (soluble, Fc-conjugated) (from UniProt P52795 25-345) (Fc fusion)” yielded a dissociation constant Kd of 0.24 nM and an off-rate constant (koff) of 0.00029 s⁻¹.
With “mouse ephrin-B2 (soluble, Fc-conjugated) (from UniProt P52800 29-232) (Fc fusion)”, the Kd turned out to be 0.56 nM, the koff is 0.00103 s⁻¹ and the on-rate (kon) was found to be 1.84e+06 M⁻¹ s⁻¹.
As to B1, the dissociation constant (Kd) amounted to 113 nM and the koff came out at 0.00079 s⁻¹.
Consider B2, for which the Kd was found to be 196 nM, the dissociation rate constant (koff) worked out at 0.00636 s⁻¹ and the kon was 32400 M⁻¹ s⁻¹.
In turn, B3 displayed a Kd of 24.5 nM, an off-rate constant (koff) of 0.00179 s⁻¹ and a kon of 73900 M⁻¹ s⁻¹.
